Biological target: T1, SECTM1B-Fc fusion protein (extracellular domain of murine SECTM1B fused to aglycosyl human IgG1 Fc) (mouse, UniProt Q9JL59 29-160, N-glycosylated)
T1 construct: Secreted and transmembrane 1B (SECTM1B), mouse, extracellular domain; The cDNA was cloned between a CD5 leader and the human IgG1 aglycosyl Fc in pEE12(CMV/T7)CD5Lhγ1; also called mSECTM1B-Fc; Secreted and transmembrane 1B; source: CHO-S cells, purified with protein G agarose (elution with glycine pH 2.0); not shown: Fc (human IgG1, aglycosyl mutant), C-terminal, kept
T1 sequence (looked up): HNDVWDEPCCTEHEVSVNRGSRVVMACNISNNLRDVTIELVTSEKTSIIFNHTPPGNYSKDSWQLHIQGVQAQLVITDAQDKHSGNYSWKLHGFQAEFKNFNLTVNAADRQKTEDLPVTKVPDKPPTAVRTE
Experiment: SPR; BIAcore 3000, 25°C, CM5 chip; Fc fusion proteins held on separate flow cells by mouse anti-human IgG (SBH2) on amine-coupled rabbit anti-mouse antibody; Fc fusion proteins at 25 µM injected in HEPES-buffered saline pH 7.4 at 5 µl per minute
Settings: both partners purified

binding result: binds
B1: CD7-Fc fusion protein (extracellular domain of murine CD7 fused to aglycosyl human IgG1 Fc) (Fc fusion, mouse, UniProt P50283 24-150, looked up)
chain: QDVHQSPRLTIASEGDSVNITCSTRGHLEGILMKKIWPQAYNVIYFEDRQEPTVDRTFSGRINFSGSQKNLTITISSLQLADTGDYTCEAVRKVSARGLFTTVVVKEKSSQEAYRSQEPLQTSFSFP
modifications: N-glycosylated
notes: CD7, mouse, extracellular domain; The cDNA was cloned between a CD5 leader and the human IgG1 aglycosyl Fc in pEE12(CMV/T7)CD5Lhγ1; also called mCD7-Fc; source: CHO-S cells, purified with protein G agarose (elution with glycine pH 2.0); not shown: Fc (human IgG1, aglycosyl mutant), C-terminal, kept
